Experiments:
Experiment in all cases: BLI
[1] = target: H3ssF_C, H3 stabilized HA stem ferritin nanoparticle, design C (influenza A virus A/Finland/486/2004 (H3N2) | not stated) (UniProt Q9ZLI1)
[2] = target: H3ssF_H, H3 stabilized HA stem ferritin nanoparticle, design H (influenza A virus A/Finland/486/2004 (H3N2) | not stated) (UniProt Q9ZLI1)
[3] = target: full-length H3 HA trimer (influenza A virus (H3))

Substance: CT149 Fab
- Kd [1]: 21.3 nM
- koff [1]: 0.017 s⁻¹
- kon [1]: 810000 M⁻¹ s⁻¹
- Kd [2]: 22.2 nM
- koff [2]: 0.018 s⁻¹
- kon [2]: 820000 M⁻¹ s⁻¹
- Kd [3]: 42.2 nM
- koff [3]: 0.0032 s⁻¹
- kon [3]: 75000 M⁻¹ s⁻¹

From article PMC6391921
